The target in test [1] is T1, DKH412 (Drosophila kinesin heavy chain residues 1-412, dimeric head construct) (Drosophila, UniProt P17210 1-412). The test can be described thus: FRET or BRET.
In test [2] the target is T1, DKH412 (Drosophila kinesin heavy chain …). Put plainly: inhibition of basal steady state ATPase.
The target is the same in test [3]. Put plainly: inhibition of mADP release from the heads.
Test [4] has the same target. The test can be described thus: inhibition of basal steady state ATPase. This is another data set of the same source.
For test [5] the target is unchanged. The test can be described thus: inhibition of mADP release from the heads. This is another data set of the same source.
Test [6] shares this target. Put plainly: co-sedimentation.

Several values for one entry are separate records, joined by “and”; a condition that tells them apart may be missing. Identical values can stand only once. Where only a bound is given, the exact number is not on record here.

B1: NF910-952mGFP (non-fusion kinesin tail peptide 910-952 with C-terminal mGFP) (domain or fragment)
chain: not shown
For B1, in test [1], the affinity, expressed as Kd, was 400 nM; the koff was roughly 32 s⁻¹; the “observed rate of dissociation with a 5-fold excess of unlabelled tail (trace b)” value worked out at 30.9 s⁻¹; the “observed rate of dissociation with a 20-fold excess of unlabelled tail (trace c)” value came to 32.8 s⁻¹.

B2: NF910-952 (non-fusion kinesin tail peptide, residues 910-952) (peptide)
chain: not shown
For B2, the values for the Kd in test [2], in test [3] and in test [5] were 66 nM, 330 nM and 21 nM, respectively. Besides, the “stoichiometry N” value in test [4] was 1 tail peptide per two head peptides.

For AVRQKHLGRRGPQAQIAKPIRSGQGATS (domain or fragment, Drosophila) [TT927-952 (thioredoxin fusion of kinesin tail residues 927-952)], the Kd in test [4] is less than 100 nM.

B3: TT910-952mGFP (thioredoxin fusion of kinesin tail residues 910-952 with C-terminal mGFP) (domain or fragment)
chain: not shown
Turning to B3, the “stoichiometry N” value in test [6] is < 0.5 TT910-952mGFP per DKH412 monomer and ~0.5 tail peptide per head peptide.

(Values after article PMC3321547 (Biochemistry, 2009).)
